Results: patent publication US20220204602A1 (published 2022)
Where “and” joins values, the source holds several entries; their conditions need not be identical. Equal entries are not always repeated. Blank lines part the entries; values can stand above or below the binder they belong to.

How the values were obtained:
human complement C5 [1] = molecular target: T1, human complement C5 (human, UniProt P01031 19-673; P01031 678-1676); test: competition ELISA; pH 7.4
human complement C5 [2] = molecular target: T1, human complement C5; test: competition ELISA; pH 6.0
Cyno FcRn = molecular target: T2, Cyno FcRn (Cynomolgus, UniProt Q8SPV9 24-297; Q8SPW0 21-119); test: SPR (Biacore); pH 6.0
T2 chain 1: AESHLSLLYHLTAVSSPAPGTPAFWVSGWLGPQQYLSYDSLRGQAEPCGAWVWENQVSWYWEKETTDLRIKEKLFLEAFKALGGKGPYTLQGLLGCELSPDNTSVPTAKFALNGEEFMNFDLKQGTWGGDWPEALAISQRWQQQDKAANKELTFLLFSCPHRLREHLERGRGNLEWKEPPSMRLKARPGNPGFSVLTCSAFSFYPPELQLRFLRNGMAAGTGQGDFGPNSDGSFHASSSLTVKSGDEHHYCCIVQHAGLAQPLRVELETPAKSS
T2 chain 2: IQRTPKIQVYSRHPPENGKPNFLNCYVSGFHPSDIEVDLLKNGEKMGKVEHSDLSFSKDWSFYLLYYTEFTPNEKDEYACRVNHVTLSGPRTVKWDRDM

- EC50 (human complement C5 [1]): 2.08 µg/mL and 1.62 µg/mL and 2.33 µg/mL
B1: parental mAb H1-8/L1-9 ScFV (scFv)
chain: MDWTWVFLFLLSVTAGVHSQVQLVQSGAEVKKPGASVKVSCKASGYTITDYHLDWVRQAPGQGLEWMGDISPNYGYTIYNQKFKDRVTMTTDTSTSTAYMELRSLRSDDTAVYYCARRDIRYSGNSYKWYFDVWGQGTMVTVSSMEAPAQLLFLLLLWLPDTTGDIQLTQSPSFLSASVGDRVTITCRTSKSISKHLAWYQQKPGKAPKLLIYSGSTLQSGVPSRFSGSGSGTEFTLTISSLQPEDFATYYCQQHNEYPYTFGQGTKLEIK

- EC50 (human complement C5 [2]): 4.97 µg/mL
- EC50 (human complement C5 [1]): 0.404 µg/mL
B2: scFV mutant clone 14C6 from mAb 1819 affinity maturation (T to H mutation in position 9 of VH CDR2) (scFv)
chain: B1 chain

- Ka (Cyno FcRn): 7.13e+07 M⁻¹
B3: anti-C5 mAb FMEH-IgG4PLA (antibody)
heavy: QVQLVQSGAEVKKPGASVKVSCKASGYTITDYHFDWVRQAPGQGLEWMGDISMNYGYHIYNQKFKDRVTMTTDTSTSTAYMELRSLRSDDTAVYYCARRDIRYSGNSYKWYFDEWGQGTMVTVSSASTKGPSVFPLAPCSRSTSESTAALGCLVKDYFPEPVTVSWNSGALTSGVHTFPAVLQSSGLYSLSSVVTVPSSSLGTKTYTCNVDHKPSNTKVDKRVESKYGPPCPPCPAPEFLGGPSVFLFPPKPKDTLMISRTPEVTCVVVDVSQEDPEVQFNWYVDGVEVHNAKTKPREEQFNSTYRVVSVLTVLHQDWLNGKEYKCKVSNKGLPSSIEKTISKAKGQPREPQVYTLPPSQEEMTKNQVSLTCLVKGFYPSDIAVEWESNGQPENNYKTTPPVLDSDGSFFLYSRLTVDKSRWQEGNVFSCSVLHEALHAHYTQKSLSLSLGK
light: DIQLTQSPSFLSASVGDRVTITCRTSKSISKHLAWYQQKPGKAPKLLIYSGSTLQSGVPSRFSGSGSGTEFTLTISSLQPEDFATYYCQQHNEYPYTFGQGTKLEIK
